Test results taken from article PMC10027511, “Disordered proteins mitigate the temperature dependence of site-specific binding free energies” (The Journal of Biological Chemistry, 2023).
Read-outs that look alike come from different tables or passages of the source.

Tests used:
[1] = tested on: N-terminal SH3 domain of Drk (T22G); assay: ITC of Sos constructs (cell) with SH3 (syringe); assay type: binding, Drosophila melanogaster; conditions: for Kd: single-site model
Experimental: volume solution of SH3 was prepared in the same buffer, at an identical concentration of SH3. Measurements were
made at 4.2, 15, 25, 35 and 45 °C. The sample was then removed, diluted using the larger SH3 solution and returned
(§1) µM, with SH3 at 270 µM (Figure S3, Table S2).

[2] = target: N-terminal SH3 domain of Drk (T22G); assay: 1H-13C HMQC titration of SH3 into 13C-Ile Sos site 4 (NMR TITAN); assay type: binding, Drosophila melanogaster; conditions: for Kd: 51.5 μM Sos site 4, 20 mM sodium phosphate pH 7.5, 5% D2O; for Kd / koff / kon / ΔGA°′‡ (activation free energy of association) / ΔGD°′ (dissociation free energy) / ΔGD°′‡ (activation free energy of dissociation): single measurement, bootstrap; for koff / kon / ΔGA°′‡ (activation free energy of association) / ΔGD°′ (dissociation free energy) / ΔGD°′‡ (activation free energy of dissociation): pH 7.5
From the text: As an alternative, we measured binding of Sos and SH3 from the opposite perspective, that is, by monitoring the interaction via Sos by moving the NMR-active nuclei from SH3 to Sos. Specifically, we isotopically enriched (^13C-δ1 methyl) isoleucines in the site 4 protein construct. This construct has three isoleucines: I1384 is in site 4; I1394 is adjacent to site 4; and I1325 is likely distant from site 4. Assignments were made via mutagenesis (Supplemental Material, Fig. S5). […] High-quality fits were obtained using two-dimensional lineshape analysis (Figs. S6–S10), yielding affinities (Table 1) similar to those from ITC (Table 2), and site 4 peptide, but only at low temperatures (Table 1) ([34]).
Figure 3 ^1H–^13C HMQC titration of Sos site 4 at 35 °C.A, spectra. B, simulated spectra from TITAN fits. C, van’t Hoff and Eyring analyses of ^1H–^13C HMQC titrations. Measurements were made with a constant concentration of 51.5 μM Sos site 4, with titration points signified by crosspeaks of different colors. SH3 concentrations are 270, 122, 100, 75.0, 50.0, 37.5, 25.0, 12.5, 6.25, 3.13, […], 0.781, 0.391, and 0 μM. HMQC, heteronuclear multiple quantum correlation; Sos, Son of sevenless.
NMR data were acquired using Bruker Avance III HD spectrometers equipped with QCI cryoprobes (^1H Larmor frequencies of 500, 470 MHz for ^19F), or TCI cryoprobes (^1H Larmor frequencies of 850 MHz, 213 MHz for ^13C). Data were processed using NMRpipe (2020.171.18.39). Spectra across different temperatures are referenced to trimethylsilylpropanesulfonate.
^1H–^13C correlation spectra were acquired using a heteronuclear multiple quantum correlation experiment (optimized for the methyl transverse relaxation optimized spectroscopy effect) ([66]) with between 8 and 40 scans, depending on the signal/noise of the Ile1384 peak. The ^1H sweep width was 15 PPM using 5120 complex points and a center frequency at 4.7 PPM. Forty-eight complex points were collected in the indirect dimension, with a sweep width of 5 PPM, and a center frequency of 12.5 PPM. The water signal was suppressed and dephased using a combination of presaturation and selective shaped pulses. Sos site 4 protein was exchanged into 20 mM sodium phosphate, pH 7.5 plus 5% (v/v) D2O using a PD-10 midi desalting column (Cytiva); its concentration was then adjusted to 51.5 μM. Four hundred microliters of Sos site 4 solution were used to dissolve lyophilized SH3 for the initial titration point, and then spectra were acquired at 4.2, 15, 25, 35, and 45 °C. The solution containing only Sos site 4 was used for a series of dilutions to obtain SH3 titration points of 270, 122, 100, 75.0, 50.0, 37.5, 25.0, 12.5, 6.25, 3.13, 1.56, 0.781, 0.391, and 0 μM.
^1H–^13C heteronuclear multiple quantum correlation titration measurements of SH3 into [^13CH3-Ile]-labeled Sos were analyzed using NMR TITAN, version 1.6 ([34]). Measurements for each temperature were fit to a two-state interaction model, and parameter uncertainties were estimated from 100 bootstrapped replicas ([34], [67]). Ile1384, Ile1394, Ile1325, and one pseudo peak were fit as a single spin group to account for overlapping resonances. Measurements across multiple temperatures were then fitted to the van’t Hoff and Eyring equations to determine Δ HD°′ , TΔ SD,298.15K°′ , Δ HA°′‡ , TΔ SA,298.15K°′‡ , Δ HD°′‡ , and TΔ SD,298.15K°′‡ . Errors generated from TITAN fits were used to perform weighted least squares regressions, and the reported uncertainties are the 95% confidence intervals of fits.

[3] = target: T1, N-terminal SH3 domain of Drk (T22G, 19F-W36) (Drosophila melanogaster, UniProt Q08012, T22G); assay: 19F NMR titration of SH3 with Sos site 4 (two-state and bidentate fits); assay type: binding
T1 construct: the N-terminal SH3 domain of Drk (UniProt ID: Q08012); 19F label: 5-fluorotryptophan at W36 (chemical label on the side chain); made in house
T1 sequence (Q08012 1-58 T22G): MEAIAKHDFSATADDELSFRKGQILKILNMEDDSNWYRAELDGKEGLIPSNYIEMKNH
Experimental: Data were acquired using Bruker Avance III HD spectrometers equipped with a QCI cryoprobe (1H Larmor frequencies of 500, and 470 MHz for 19F). Data was processed using NMRpipe (2020.171.18.39) and referenced to trimethylsilylpropanesulfonate to account the temperature dependence of chemical shift. […]
site 4 (non-MBD tagged construct) was exchanged into of 50 mM HEPES, 50 mM bis-tris propane, 50 mM sodium acetate pH 7.5 plus 5% (v/v) D2O using a PD-10 Midi column (Cytiva) selecting the fractions with the highest concentration for the titration. The Sos solution was used to dissolved one aliquot of SH3, and a second, larger […]
volume solution of SH3 was prepared in the same buffer, at an identical concentration of SH3. Measurements were made at 4.2, 15, 25, 35 and 45 °C. The sample was then removed, diluted using the larger SH3 solution and returned […]
as §1

[4] = 4.2 °C, SMG construct, 20 mM sodium phosphate pH 7.5, knockout subtracted, three fits
[5] = 298 K, linear Eyring fit, 95% confidence interval
[6] = linear Eyring fit, 95% confidence interval
[7] = 4.2 °C, bidentate fit, strong site
[8] = 4.2 °C, bidentate fit, weak/nonspecific site
[9] = 15 °C, bidentate fit, strong site
[10] = 15 °C, bidentate fit, weak/nonspecific site
[11] = 25 °C, bidentate fit, strong site
[12] = 25 °C, bidentate fit, weak/nonspecific site
[13] = 35 °C, bidentate fit, strong site
[14] = 35 °C, bidentate fit, weak/nonspecific site
[15] = 45 °C, bidentate fit, strong site
[16] = 45 °C, bidentate fit, weak/nonspecific site

B1: Site 4: Sos residues 1177 to 1405, L1203A, L1372A, R1375A, C1306S, C1357S, L1346A, R1349A, R1350A (protein, UniProt P26675 1177-1405, looked up, variant L1203A L1372A R1375A C1306S C1357S L1346A R1349A R1350A)
chain: TSSWSGTPQHTRTDQNNGEVSVPAPHAPKKPGAHVWANNNSTLASASAMDVVFSPALPEHLPPQSLPDSNPFASDTEAPPSPLPKLVVSPRHETGNRSPFHGRMQNSPTHSTASTVTLTGMSTSGGEEFSAGGFYFNSAHQGQPGAVPISPHVNVPMATNMEYRAVPPPAPPAAKERTESSADMAQKRQAPDAPTAPPADGELSPPPIPPRLNHSTGISYLRQSHGKSK
In the case of B1, the Kd [1, 4] is reported as 3 ± 1 µM, the “ΔHD°′” value [1, 4] is reported as 2.8 ± 0.1 kcal/mol and the Kd ([1]; 35 °C (35.1 in Table S1), SMG construct, 20 mM sodium phosphate pH 7.5, knockout subtracted, three fits) is reported as 14 ± 3 µM. For the same molecule, the “sign of ΔCP,D” value ([1]; from ΔHD°′ at 4.2 and 35 °C) was “positive”, the “stoichiometry before knockout subtraction” value ([1]; unsaturated after >3 mole equivalents, specific plus nonspecific binding) was over 1 and the Kd ([2]; 4.2 °C) was 3 ± 0.2 µM. For the same molecule, the koff ([2]; 4.2 °C) was 0.093 ± 0.002 10^3 s^−1, the kon ([2]; 4.2 °C) was 0.31 ± 0.02 10^8 M^−1 s^−1 and the “ΔGA°′‡ (activation free energy of association)” value ([2]; 4.2 °C) was 6.69 ± 0.07 kcal/mol. The “ΔGD°′ (dissociation free energy)” value ([2]; 4.2 °C) was 7.01 ± 0.07 kcal/mol, the “ΔGD°′‡ (activation free energy of dissociation)” value ([2]; 4.2 °C) was 13.70 ± 0.02 kcal/mol and the “temperature dependence of ΔGD°′‡ and ΔGA°′‡” value ([2]; 4.2–45 °C) was “do not change with temperature”. The Kd ([2]; 15 °C) was 4.5 ± 0.2 µM, the koff ([2]; 15 °C) was 0.25 ± 0.09 10^3 s^−1 and the kon ([2]; 15 °C) was 0.56 ± 0.03 10^8 M^−1 s^−1. For the same molecule, the “ΔGA°′‡ (activation free energy of association)” value ([2]; 15 °C) was 6.64 ± 0.06 kcal/mol, the “ΔGD°′ (dissociation free energy)” value ([2]; 15 °C) was 7.05 ± 0.04 kcal/mol and the “ΔGD°′‡ (activation free energy of dissociation)” value ([2]; 15 °C) was 13.69 ± 0.04 kcal/mol. The Kd ([2]; 25 °C) was 6.4 ± 0.2 µM, the koff ([2]; 25 °C) was 0.62 ± 0.03 10^3 s^−1 and the kon ([2]; 25 °C) was 0.97 ± 0.06 10^8 M^−1 s^−1. The “ΔGA°′‡ (activation free energy of association)” value ([2]; 25 °C) was 6.56 ± 0.06 kcal/mol, the “ΔGD°′ (dissociation free energy)” value ([2]; 25 °C) was 7.09 ± 0.03 kcal/mol and the “ΔGD°′‡ (activation free energy of dissociation)” value ([2]; 25 °C) was 13.64 ± 0.05 kcal/mol. For the same molecule, the Kd ([2]; 35 °C) was 9.7 ± 0.2 µM, the koff ([2]; 35 °C) was 1.25 ± 0.04 10^3 s^−1 and the kon ([2]; 35 °C) was 1.29 ± 0.05 10^8 M^−1 s^−1. The “ΔGA°′‡ (activation free energy of association)” value ([2]; 35 °C) was 6.62 ± 0.04 kcal/mol, the “ΔGD°′ (dissociation free energy)” value ([2]; 35 °C) was 7.07 ± 0.02 kcal/mol and the “ΔGD°′‡ (activation free energy of dissociation)” value ([2]; 35 °C) was 13.69 ± 0.03 kcal/mol. For the same molecule, the Kd ([2]; 45 °C) was 17.8 ± 0.5 µM, the koff ([2]; 45 °C) was 4.4 ± 0.2 10^3 s^−1 and the kon ([2]; 45 °C) was 2.5 ± 0.1 10^8 M^−1 s^−1. For the same molecule, the “ΔGA°′‡ (activation free energy of association)” value ([2]; 45 °C) was 6.45 ± 0.05 kcal/mol, the “ΔGD°′ (dissociation free energy)” value ([2]; 45 °C) was 6.91 ± 0.03 kcal/mol and the “ΔGD°′‡ (activation free energy of dissociation)” value ([2]; 45 °C) was 13.36 ± 0.05 kcal/mol. The “TΔSA°′‡ (activation entropy of association)” value [2, 5] was 1 ± 1, the “TΔSD°′‡ (activation entropy of dissociation)” value [2, 5] was 1 ± 2 and the “TΔSD°′ (van't Hoff)” value ([2]; 298 K, linear van't Hoff fit, 95% confidence interval) was 0 ± 2 kcal/mol. The “ΔHA°′‡ (activation enthalpy of association)” value [2, 6] was 7 ± 1 kcal/mol, the “ΔHD°′‡ (activation enthalpy of dissociation)” value [2, 6] was 14 ± 1 kcal/mol and the “ΔHD°′ (van't Hoff)” value ([2]; linear van't Hoff fit of 4.2-45 °C data, 95% confidence interval) was 7 ± 2 kcal/mol. The “Site 1 koff” value [3, 7] was 0.080 103 s-1, the “Site 1 kon” value [3, 7] was 0.37 108 s-1 M-1 and the Kd ([3]; 4.2 °C, bidentate fit, strong site, 50 mM HEPES, 50 mM bis-tris propane, 50 mM sodium acetate pH 7.5, 5% D2O, MG construct, read-out: Site 1 KD) was 2.15 µM. For the same molecule, the “Site 2 koff” value [3, 8] was 11 ± 4 103 s-1, the “Site 2 kon” value [3, 8] was 0.15 108 s-1 M-1 and the Kd ([3]; 4.2 °C, bidentate fit, weak/nonspecific site, read-out: Site 2 KD) was 800 µM. The Kd ([3]; 4.2 °C, two-state model (poor fit), read-out: KD) was 0.3 µM, the “Site 1 koff” value [3, 9] was 0.239 103 s-1 and the “Site 1 kon” value [3, 9] was 0.49 108 s-1 M-1. The Kd ([3]; 15 °C, bidentate fit, strong site, pH 7.5, read-out: Site 1 KD) was 4.9 µM, the “Site 2 koff” value [3, 10] was 15 ± 4 103 s-1 and the “Site 2 kon” value [3, 10] was 0.10 108 s-1 M-1. The Kd ([3]; 15 °C, bidentate fit, weak/nonspecific site, read-out: Site 2 KD) was 1500 µM, the “Site 1 koff” value [3, 11] was 0.667 103 s-1 and the “Site 1 kon” value [3, 11] was 0.63 108 s-1 M-1. The Kd ([3]; 25 °C, bidentate fit, strong site, pH 7.5, read-out: Site 1 KD) was 10.6 µM, the “Site 2 koff” value [3, 12] was 19 ± 5 103 s-1 and the “Site 2 kon” value [3, 12] was 0.06 108 s-1 M-1. The Kd ([3]; 25 °C, bidentate fit, weak/nonspecific site, read-out: Site 2 KD) was 3000 µM, the “Site 1 koff” value [3, 13] was 1.74 103 s-1 and the “Site 1 kon” value [3, 13] was 0.80 108 s-1 M-1. For the same molecule, the Kd ([3]; 35 °C, bidentate fit, strong site, pH 7.5, read-out: Site 1 KD) was 21.7 µM, the “Site 2 koff” value [3, 14] was 23 ± 7 103 s-1 and the “Site 2 kon” value [3, 14] was 0.04 108 s-1 M-1. The Kd ([3]; 35 °C, bidentate fit, weak/nonspecific site, read-out: Site 2 KD) was 6000 µM, the “Site 1 koff” value [3, 15] was 4.29 103 s-1 and the “Site 1 kon” value [3, 15] was 1.01 108 s-1 M-1. The Kd ([3]; 45 °C, bidentate fit, strong site, pH 7.5, read-out: Site 1 KD) was 42.6 µM, the “Site 2 koff” value [3, 16] was 30 ± 10 103 s-1 and the “Site 2 kon” value [3, 16] was 0.03 108 s-1 M-1. The Kd ([3]; 45 °C, bidentate fit, weak/nonspecific site, read-out: Site 2 KD) was 10000 µM.
